Two substances from paper PMC5292672 can be followed below.

For the assay, the target named is herpes virus entry mediator (HVEM) (human (endogenous in monocyte‐derived macrophages)) (UniProt Q92956).
UniProt Q92956, sequence (Q92956 39-283): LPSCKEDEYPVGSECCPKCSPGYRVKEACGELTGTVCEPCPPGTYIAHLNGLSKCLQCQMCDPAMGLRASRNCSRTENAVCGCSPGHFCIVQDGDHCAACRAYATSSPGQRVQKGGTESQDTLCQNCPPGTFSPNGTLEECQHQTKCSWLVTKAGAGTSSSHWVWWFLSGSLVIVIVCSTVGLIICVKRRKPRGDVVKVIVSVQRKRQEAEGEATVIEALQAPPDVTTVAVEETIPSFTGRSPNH

The substance “recombinant human cyclophilin B (from UniProt P23284 34-216) (natural protein)” showed a decrease of staurosporin-induced caspase-3 activity in primary macrophages exposed before to CyPB, against staurosporin alone of 75%.

In turn, “recombinant His‐tagged HSV‐1 gD (glycoprotein D of herpes simplex virus‐1) (from UniProt Q69091 26-394) (natural protein)” had a decrease of staurosporin-induced caspase-3 activity in primary macrophages exposed before to HSV-1 gD, against staurosporin alone of 75%.
